# Measured values from patent publication US20130225506A1 (POLYPHOR, published 2013).
# Numbered stars: 1 amine (or outer) side, 2 acyl side, 3 side chain; on linkers, the order of the positions; unused ones are H or OH. Square brackets hold non-standard residues; d marks the D form. Primed or numbered codes have the meaning given here. Pro((4S)NHBz) = proline with (4S)-NHBz, O=C(N[C@H]1C[C@@H](C(=O)[*:2])N([*:1])C1)c1ccccc1; (4S)Hyp(Bn) = O=C([C@@H]1C[C@H](OCc2ccccc2)CN1[*:1])[*:2]; dPro(cis-4-NH2) = N[C@H]1CN[C@@H](C(=O)O)C1; dPro(4S-NH2) = N[C@@H]1CN[C@@H](C(=O)O)C1; Oic = O=C(O)[C@@H]1C[C@@H]2CCCC[C@@H]2N1; 1Nal = N[C@@H](Cc1cccc2ccccc12)C(=O)O; 2Nal = N[C@@H](Cc1ccc2ccccc2c1)C(=O)O; Pro(3S-OH) = O=C(O)[C@H]1NCC[C@@H]1O; hArg = N=C(N)NCCCC[C@H](N)C(=O)O; 3Pal = N[C@@H](Cc1cccnc1)C(=O)O; Tic = O=C(O)[C@@H]1Cc2ccccc2CN1; d3Pal = N[C@H](Cc1cccnc1)C(=O)O; dHyp = O=C(O)[C@H]1C[C@H](O)CN1; Agb = N=C(N)NCC[C@H](N)C(=O)O; Chg = N[C@H](C(=O)O)C1CCCCC1; dDab = NCC[C@@H](N)C(=O)O; Nle = CCCC[C@H](N)C(=O)O; dPip′ = not defined here; Dab = NCC[C@H](N)C(=O)O; Abu = CC[C@H](N)C(=O)O; Mor = not defined here
# Target: chemokine receptor CXCR7 (UniProt P25106 1-362, limits assumed)
# Assay: cell-based or functional assay
# Chain of chemokine receptor CXCR7 (P25106 whole entry): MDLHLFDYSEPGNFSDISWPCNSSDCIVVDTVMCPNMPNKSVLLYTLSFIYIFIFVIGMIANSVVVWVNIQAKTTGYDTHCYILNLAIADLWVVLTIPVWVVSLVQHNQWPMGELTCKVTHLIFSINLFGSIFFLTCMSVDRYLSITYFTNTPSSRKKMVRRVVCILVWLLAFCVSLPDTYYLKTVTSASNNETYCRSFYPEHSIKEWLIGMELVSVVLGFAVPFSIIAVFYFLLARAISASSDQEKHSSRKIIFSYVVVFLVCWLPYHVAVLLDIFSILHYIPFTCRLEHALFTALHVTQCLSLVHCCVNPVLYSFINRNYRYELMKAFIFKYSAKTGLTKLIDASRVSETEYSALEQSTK
row,Binder,β-Arrestin EC50
1,cyclo([Chg][dR]RW[dP]T) (SMILES C[C@@H](O)[C@@H]1NC(=O)[C@H]2CCCN2C(=O)[C@H](Cc2c[nH]c3ccccc23)NC(=O)[C@H](CCCNC(=N)N)NC(=O)[C@@H](CCCNC(=N)N)NC(=O)[C@H](C2CCCCC2)NC1=O) [cyclo(-Chg-^DArg-Arg-Trp-^DPro-Thr-)],6.7 nM
2,cyclo(W[dF]WR[dPro(cis-4-NH2)][(4S)Hyp(Bn)]) (SMILES N=C(N)NCCC[C@@H]1NC(=O)[C@H](Cc2c[nH]c3ccccc23)NC(=O)[C@@H](Cc2ccccc2)NC(=O)[C@H](Cc2c[nH]c3ccccc23)NC(=O)[C@@H]2C[C@H](OCc3ccccc3)CN2C(=O)[C@H]2C[C@@H](N)CN2C1=O) [cyclo(-Trp-^DPhe-Trp-Arg-^DPro((4R)NH2)-(4S)-Hyp(Bn)-)],6.6 nM
3,cyclo(I[dR]RW[dPip′][Pro(3S-OH)]) [cyclo(-Ile-^DArg-Arg-Trp-^DPip-Pro((3S)OH)-)],8.2 nM
4,cyclo(W[d3Pal]WR[dPro(cis-4-NH2)][Tic]) (SMILES N=C(N)NCCC[C@@H]1NC(=O)[C@H](Cc2c[nH]c3ccccc23)NC(=O)[C@@H](Cc2cccnc2)NC(=O)[C@H](Cc2c[nH]c3ccccc23)NC(=O)[C@@H]2Cc3ccccc3CN2C(=O)[C@H]2C[C@@H](N)CN2C1=O) [cyclo(-Trp-^D3Pal-Trp-Arg-^DPro((4R)NH2)-Tic-)],6.1 nM
5,cyclo(I[dR]RW[dHyp]T) (not fully specified) [cyclo(-Ile-^DArg-Arg-Trp-^DPro((4S)OH)-Thr-)],632 nM
6,cyclo(W[dF]WR[dP][Pro((4S)F)]) [cyclo(-Trp-^DPhe-Trp-Arg-^DPro-Pro((4S)F)-)],119 nM
7,cyclo(W[dF]WR[dP][Mor]) (reading uncertain; also: printed as cyclo(-Trp-^DPhe-Trp-Arg-^DPro-Mor-)) [cyclo(-Trp-^DPhe-Trp-Arg-^DPro-Mor-)],132 nM
8,cyclo(W[dF]WR[dP][Pro((4S)NH2)]) [cyclo(-Trp-^DPhe-Trp-Arg-^DPro-Pro((4S)NH2)-)],36.9 nM
9,cyclo([Abu][dR]RW[dP]T) (SMILES CC[C@@H]1NC(=O)[C@H]([C@@H](C)O)NC(=O)[C@H]2CCCN2C(=O)[C@H](Cc2c[nH]c3ccccc23)NC(=O)[C@H](CCCNC(=N)N)NC(=O)[C@@H](CCCNC(=N)N)NC1=O) [cyclo(-Abu-^DArg-Arg-Trp-^DPro-Thr-)],330 nM
10,cyclo(R[dF]WR[dPro(cis-4-NH2)][Oic]) (SMILES N=C(N)NCCC[C@@H]1NC(=O)[C@@H]2C[C@@H]3CCCC[C@@H]3N2C(=O)[C@H]2C[C@@H](N)CN2C(=O)[C@H](CCCNC(=N)N)NC(=O)[C@H](Cc2c[nH]c3ccccc23)NC(=O)[C@@H](Cc2ccccc2)NC1=O) [cyclo(-Arg-^DPhe-Trp-Arg-^DPro((4R)NH2)-Oic-)],20.5 nM
11,cyclo(R[dF]WR[dP][(4S)Hyp(Bn)]) (SMILES N=C(N)NCCC[C@@H]1NC(=O)[C@@H]2C[C@H](OCc3ccccc3)CN2C(=O)[C@H]2CCCN2C(=O)[C@H](CCCNC(=N)N)NC(=O)[C@H](Cc2c[nH]c3ccccc23)NC(=O)[C@@H](Cc2ccccc2)NC1=O) [cyclo(-Arg-^DPhe-Trp-Arg-^DPro-(4S)-Hyp(Bn)-)],76.9 nM
12,cyclo(I[dR]R[2Nal][dP][Pro(3S-OH)]) (SMILES CC[C@H](C)[C@@H]1NC(=O)[C@@H]2[C@@H](O)CCN2C(=O)[C@H]2CCCN2C(=O)[C@H](Cc2ccc3ccccc3c2)NC(=O)[C@H](CCCNC(=N)N)NC(=O)[C@@H](CCCNC(=N)N)NC1=O) [cyclo(-Ile-^DArg-Arg-2Nal-^DPro-Pro((3S)OH)-)],76.8 nM
13,cyclo(W[dF]WR[dP][Pro((4R)NH2)]) [cyclo(-Trp-^DPhe-Trp-Arg-^DPro-Pro((4R)NH2)-)],26.9 nM

# More lines, now with the values ahead:
row,β-Arrestin EC50,Binder
1,5.1 nM,cyclo([3Pal][dF]WR[dPro(cis-4-NH2)][Tic]) (SMILES N=C(N)NCCC[C@@H]1NC(=O)[C@H](Cc2c[nH]c3ccccc23)NC(=O)[C@@H](Cc2ccccc2)NC(=O)[C@H](Cc2cccnc2)NC(=O)[C@@H]2Cc3ccccc3CN2C(=O)[C@H]2C[C@@H](N)CN2C1=O) [cyclo(-3Pal-^DPhe-Trp-Arg-^DPro((4R)NH2)-Tic-)]
2,13.1 nM,cyclo(R[dF]WR[dPro(4S-NH2)][Tic]) (SMILES N=C(N)NCCC[C@@H]1NC(=O)[C@@H]2Cc3ccccc3CN2C(=O)[C@H]2C[C@H](N)CN2C(=O)[C@H](CCCNC(=N)N)NC(=O)[C@H](Cc2c[nH]c3ccccc23)NC(=O)[C@@H](Cc2ccccc2)NC1=O) [cyclo(-Arg-^DPhe-Trp-Arg-^DPro((4S)NH2)-Tic-)]
3,20.9 nM,cyclo(W[dF]WR[dPro(cis-4-NH2)][Oic]) (SMILES N=C(N)NCCC[C@@H]1NC(=O)[C@H](Cc2c[nH]c3ccccc23)NC(=O)[C@@H](Cc2ccccc2)NC(=O)[C@H](Cc2c[nH]c3ccccc23)NC(=O)[C@@H]2C[C@@H]3CCCC[C@@H]3N2C(=O)[C@H]2C[C@@H](N)CN2C1=O) [cyclo(-Trp-^DPhe-Trp-Arg-^DPro((4R)NH2)-Oic-)]
4,13.7 nM,cyclo([1Nal][dR]RW[dP][Pro(3S-OH)]) (SMILES N=C(N)NCCC[C@@H]1NC(=O)[C@@H](CCCNC(=N)N)NC(=O)[C@H](Cc2cccc3ccccc23)NC(=O)[C@@H]2[C@@H](O)CCN2C(=O)[C@H]2CCCN2C(=O)[C@H](Cc2c[nH]c3ccccc23)NC1=O) [cyclo(-1Nal-^DArg-Arg-Trp-^DPro-Pro((3S)OH)-)]
5,48.4 nM,cyclo(I[dDab]RW[dP]T) (SMILES CC[C@H](C)[C@@H]1NC(=O)[C@H]([C@@H](C)O)NC(=O)[C@H]2CCCN2C(=O)[C@H](Cc2c[nH]c3ccccc23)NC(=O)[C@H](CCCNC(=N)N)NC(=O)[C@@H](CCN)NC1=O) [cyclo(-Ile-^DDab-Arg-Trp-^DPro-Thr-)]
6,414 nM,cyclo(H[dW]HW[dP][Pro((4S)NHBz)]) (SMILES O=C(N[C@H]1C[C@H]2C(=O)N[C@@H](Cc3c[nH]cn3)C(=O)N[C@H](Cc3c[nH]c4ccccc34)C(=O)N[C@@H](Cc3c[nH]cn3)C(=O)N[C@@H](Cc3c[nH]c4ccccc34)C(=O)N3CCC[C@@H]3C(=O)N2C1)c1ccccc1) [cyclo(-His-^DTrp-His-Trp-^DPro-Pro((4S)NHBz)-)]
7,5.3 nM,cyclo(L[dR]RW[dP]T) (SMILES CC(C)C[C@@H]1NC(=O)[C@H]([C@@H](C)O)NC(=O)[C@H]2CCCN2C(=O)[C@H](Cc2c[nH]c3ccccc23)NC(=O)[C@H](CCCNC(=N)N)NC(=O)[C@@H](CCCNC(=N)N)NC1=O) [cyclo(-Leu-^DArg-Arg-Trp-^DPro-Thr-)]
8,12.2 nM,cyclo([hArg][dF]WR[dPro(cis-4-NH2)][Tic]) (SMILES N=C(N)NCCCC[C@@H]1NC(=O)[C@@H]2Cc3ccccc3CN2C(=O)[C@H]2C[C@@H](N)CN2C(=O)[C@H](CCCNC(=N)N)NC(=O)[C@H](Cc2c[nH]c3ccccc23)NC(=O)[C@@H](Cc2ccccc2)NC1=O) [cyclo(-hArg-^DPhe-Trp-Arg-^DPro((4R)NH2)-Tic-)]
9,2.8 nM,cyclo([Nle][dR]RW[dP]T) (SMILES CCCC[C@@H]1NC(=O)[C@H]([C@@H](C)O)NC(=O)[C@H]2CCCN2C(=O)[C@H](Cc2c[nH]c3ccccc23)NC(=O)[C@H](CCCNC(=N)N)NC(=O)[C@@H](CCCNC(=N)N)NC1=O) [cyclo(-Nle-^DArg-Arg-Trp-^DPro-Thr-)]
10,87 nM,cyclo(I[dR][Dab]W[dP]T) (SMILES CC[C@H](C)[C@@H]1NC(=O)[C@H]([C@@H](C)O)NC(=O)[C@H]2CCCN2C(=O)[C@H](Cc2c[nH]c3ccccc23)NC(=O)[C@H](CCN)NC(=O)[C@@H](CCCNC(=N)N)NC1=O) [cyclo(-Ile-^DArg-Dab-Trp-^DPro-Thr-)]
11,352 nM,cyclo(R[dF]W[hArg][dPro(cis-4-NH2)][Tic]) (SMILES N=C(N)NCCCC[C@@H]1NC(=O)[C@H](Cc2c[nH]c3ccccc23)NC(=O)[C@@H](Cc2ccccc2)NC(=O)[C@H](CCCNC(=N)N)NC(=O)[C@@H]2Cc3ccccc3CN2C(=O)[C@H]2C[C@@H](N)CN2C1=O) [cyclo(-Arg-^DPhe-Trp-hArg-^DPro((4R)NH2)-Tic-)]
12,7.6 nM,cyclo(W[dF]WR[dHyp][(4S)Hyp(Bn)]) (SMILES N=C(N)NCCC[C@@H]1NC(=O)[C@H](Cc2c[nH]c3ccccc23)NC(=O)[C@@H](Cc2ccccc2)NC(=O)[C@H](Cc2c[nH]c3ccccc23)NC(=O)[C@@H]2C[C@H](OCc3ccccc3)CN2C(=O)[C@H]2C[C@H](O)CN2C1=O) [cyclo(-Trp-^DPhe-Trp-Arg-^DPro((4S)OH)-(4S)-Hyp(Bn)-)]
13,46.4 nM,cyclo(I[dR]RF[dP]T) (SMILES CC[C@H](C)[C@@H]1NC(=O)[C@H]([C@@H](C)O)NC(=O)[C@H]2CCCN2C(=O)[C@H](Cc2ccccc2)NC(=O)[C@H](CCCNC(=N)N)NC(=O)[C@@H](CCCNC(=N)N)NC1=O) [cyclo(-Ile-^DArg-Arg-Phe-^DPro-Thr-)]
14,948 nM,cyclo(I[dR]RW[dPro(cis-4-NH2)]T) (SMILES CC[C@H](C)[C@@H]1NC(=O)[C@H]([C@@H](C)O)NC(=O)[C@H]2C[C@@H](N)CN2C(=O)[C@H](Cc2c[nH]c3ccccc23)NC(=O)[C@H](CCCNC(=N)N)NC(=O)[C@@H](CCCNC(=N)N)NC1=O) [cyclo(-Ile-^DArg-Arg-Trp-^DPro((4R)NH2)-Thr-)]
15,271 nM,cyclo(V[dR]RW[dP]T) (SMILES CC(C)[C@@H]1NC(=O)[C@H]([C@@H](C)O)NC(=O)[C@H]2CCCN2C(=O)[C@H](Cc2c[nH]c3ccccc23)NC(=O)[C@H](CCCNC(=N)N)NC(=O)[C@@H](CCCNC(=N)N)NC1=O) [cyclo(-Val-^DArg-Arg-Trp-^DPro-Thr-)]
16,452 nM,cyclo([Agb][dF]WR[dPro(cis-4-NH2)][Tic]) (SMILES N=C(N)NCCC[C@@H]1NC(=O)[C@H](Cc2c[nH]c3ccccc23)NC(=O)[C@@H](Cc2ccccc2)NC(=O)[C@H](CCNC(=N)N)NC(=O)[C@@H]2Cc3ccccc3CN2C(=O)[C@H]2C[C@@H](N)CN2C1=O) [cyclo(-Agb-^DPhe-Trp-Arg-^DPro((4R)NH2)-Tic-)]
